{"source": "paper PMC8514162", "test_in_all_cases": "native MS", "key": {"[1]": {"target": "haptoglobin Hp 2-1 isoform HL(L*H)LH (human) (UniProt P00738)"}, "[2]": {"target": "haptoglobin Hp 1-1, tetramer H-L-L-H (human) (UniProt P00738)"}, "[3]": {"target": "haptoglobin Hp 2-1 isoform HL(L*H)LH (human) (UniProt P00738)", "remark": "listed apart in the source"}, "[4]": {"target": "haptoglobin Hp 1-1, tetramer H-L-L-H (human) (UniProt P00738)", "remark": "listed apart in the source"}, "[5]": {"target": "haptoglobin Hp 2-1 isoform HL(L*H)2LH (human) (UniProt P00738)"}}, "note": "Where two headings read alike, the source gives them in different places."}
{"substance": "semi-hemoglobin dimer α*β* of hemoglobin (Hb) (from UniProt P69905 1-142; P68871 1-147) (complex)", "values": [{"measurement": "stoichiometry N (semi-Hb dimers per HL(L*H)LH)", "setting": "[1]", "value": 3}, {"measurement": "stoichiometry N (α*β* dimers per HLLH)", "setting": "[2]", "value": 2}, {"measurement": "stoichiometry N (semi-Hb dimers per HL(L*H)LH)", "setting": "[3]", "value": 3}, {"measurement": "stoichiometry N (Hb dimers per Hp molecule)", "setting": "[4]", "value": 2}, {"measurement": "stoichiometry N (semi-Hb dimers per HLLH)", "setting": "[4]", "value": 2}, {"measurement": "stoichiometry N (α*β* dimers per HLLH)", "setting": "[4]", "value": 2}, {"measurement": "stoichiometry N (dimeric Hb subunits per HL(L*H)2LH)", "setting": "[5]", "value": 4}]}
